Experimental data published in patent US20240002497A1 (Merck Sharp & Dohme, published 2024).
Read-outs that look alike come from different tables or passages of the source. Blank lines part the entries; values can stand above or below the binder they belong to.

Legend:
[1] = target: T1, huNav1.7α + β1 (human Nav1.7α co-expressed with Navβ1) (human, UniProt Q15858 1-1988; Q07699 19-218); assay: binding FACS, HEKa/β1 cells
T1 construct: also called HEK293 human Nav1.7α + β1; HEKa/β1 Nav1.7α

huNav157 chimera 14 [2] = target: T2, huNav157 chimera 14 (human); assay: binding FACS, HEK FlpIn cells
T2 construct: Chimera without β subunits; also called Nav157ch14

[3] = target: T3, huNav157 chimera 14 + β1-β2-β3 (human); assay: binding FACS, HEK FlpIn cells
T3 construct: Chimera of huNav1.7α (extracellular loops and transmembrane helices) and huNav1.5α (intracellular loops); also called Nav157ch14-β1-β2-β3; huNav157 chimera 14-beta1-beta2-beta3

[4] = target: T4, huNav1.7α (human Nav1.7 alpha subunit, expressed without β subunits) (human, UniProt Q15858 1-1988); assay: binding FACS, HEKa cells
T4 construct: also called HEK293 human Nav1.7α; HEKa Nav1.7α

[5] = target: T1, huNav1.7α + β1 (human Nav1.7α …); assay: binding FACS, HEKa/β1 cells; remark: listed apart in the source
[6] = target: T4, huNav1.7α (human Nav1.7 alpha subunit, …); assay: binding FACS, HEKa cells; remark: listed apart in the source
[7] = target: T5, huNav1.7α + β1-β2-β3 (human Nav1.7α co-expressed with Navβ1, Navβ2 and Navβ3) (human); assay: binding FACS, HEK FlpIn cells
T5 construct: also called huNav1.7-beta1-beta2-beta3

huNav157 chimera 14 [8] = target: T2, huNav157 chimera 14; assay: binding FACS, HEK FlpIn cells; remark: listed apart in the source
[9] = target: T3, huNav157 chimera 14 + β1-β2-β3; assay: binding FACS, HEK FlpIn cells; remark: listed apart in the source
[10] = target: T6, huNav1.7α(E281V) + β1-β2-β3 (human); assay: binding FACS, CHO FlpIn cells
T6 construct: polyprotein as encoded; the entry already carries E281V; also called huNav1.7(E281V)-beta1-beta2-beta3
Summary of the method: (§1)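 Flow cytometry binding assay on stable CHO FlpIn cell lines expressing Nav1.7α (human wild type, single DI S5-S6 point variants, or rhesus) with β1-β2-β3. Cells in FACS buffer (PBS, 10% FBS, NaN₃) were plated at 1×10^5 cells/well in 96-well V-bottom plates. FLAG3-tagged ISVDs were added for 30 minutes at 4° C and detected with murine anti-Flag. Dead cells were excluded using 1 μg/mL propidium iodide, and EC50 was determined.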

[11] = target: T7, huNav1.7α(R277Q) + β1-β2-β3 (human); assay: binding FACS, CHO FlpIn cells
T7 construct: polyprotein as encoded; the entry already carries R277Q; also called huNav1.7(R277Q)-beta1-beta2-beta3
Summary of the method: as §1

huNav1.7α + β1-β2-β3 [12] = target: T8, huNav1.7α + β1-β2-β3 (human, UniProt Q15858 1-1988; A5A6L6 19-218; O60939 30-215; Q2KI11 23-215); assay: binding FACS, CHO FlpIn cells
T8 construct: Cell line (CHO FlpIn, HEK FlpIn, transient HEK293T) is named under assay; also called huNav1.7-beta1-beta2-beta3; human Nav1.7α with Navβ1, Navβ2 and Navβ3
Summary of the method: as §1

[13] = target: T9, huNav1.7α(V331M) + β1-β2-β3 (human); assay: binding FACS, CHO FlpIn cells
T9 construct: polyprotein as encoded; the entry already carries V331M; also called huNav1.7(V331M)-beta1-beta2-beta3
Summary of the method: as §1

[14] = target: T10, huNav1.7α(F276V) + β1-β2-β3 (human, UniProt Q15858 1-1988; A5A6L6 19-218; O60939 30-215; Q2KI11 23-215); assay: binding FACS, CHO FlpIn cells
T10 construct: polyprotein as encoded, P2A sites liberate the subunits; the entry already carries F276V; also called huNav1.7(F276V)-beta1-beta2-beta3
Summary of the method: as §1

rhNav1.7α + β1-β2-β3 [15] = target: T11, rhNav1.7α + β1-β2-β3 (rhesus monkey); assay: competition FACS, CHO FlpIn cells, vs EC40 of F0103275B05(N93R)
T11 construct: also called rhNav1.7-beta1-beta2-beta3; rhesus Nav1.7α

huNav1.7α + β1-β2-β3 [16] = target: T8, huNav1.7α + β1-β2-β3; assay: competition FACS, HEK FlpIn cells, vs EC30 of CMYC3-F0103265B04
Protocol: Competition FACS assays were performed with CMYC3-tagged ISVD F0103265B04 or F0103275B05(N93R) affinity maturation variant on a HEK FlpIn huNav1.7α+β1−β2−β3 transgenic cell line. Briefly, cells were resuspended in FACS buffer (PBS, 2% FBS, 0.05% NaN₃) and 1×10⁵ cells/well were transferred to 96-well V-bottom plates. Cells were subsequently resuspended in a 100 μL mixture of purified ISVD (dilution series) and CMYC3-tagged ISVD F0103265B04 (at a concentration equivalent to EC30) followed by incubation for 1.5 hours at 4° C. […] Between each step, the cells were centrifuged for 5 minutes at 200 g and washed with 100 μL/well FACS buffer. Prior to the read-out, the samples were resuspended in 5 nM TOPRO3 (Molecular probes, catalog #T3605) to exclude dead cells. F0103262CO2, F0103262B06, F0103265A11, F0103265B04, F0103275B05, F0103362B08, and F0103387G04 all compete with F0103265B04 for binding to huNav1.7α, in contrast to an irrelevant control ISVD (IRR) (see Table 21 and FIG. 15A, FIG. 15B, FIG. 15C, and FIG. 15D).

huNav1.7α + β1-β2-β3 [17] = target: T8, huNav1.7α + β1-β2-β3; assay: competition FACS, CHO FlpIn cells, vs EC25 of F0103275B05(N93R)
huNav1.7α = huNav1.7α (human, UniProt Q15858 1-1988); assay: cell-based or functional assay
huNav1.7α + β1 = huNav1.7α + β1 (human); assay: cell-based or functional assay
huNav1.7α + β1-β2-β3 [18] = target: T12, huNav1.7α + β1-β2-β3 (human, UniProt Q15858 1-1988; A5A6L6 19-218; O60939 30-215; Q2KI11 23-215); assay: binding FACS, CHO FlpIn
T12 construct: also called huNav1.7-beta1-beta2-beta3; huNav1.7-β1-β2-β3
Summary of the method: (§2)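 Cells at 1×10^5 per well incubated 30 min at 4 °C with purified FLAG3-tagged ISVD in FACS buffer (PBS, 10% FBS, NaN₃); bound ISVD detected via murine anti-Flag by flow cytometry, dead cells excluded with 1 μg/mL propidium iodide.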

rhNav1.7α + β1-β2-β3 [19] = target: T13, rhNav1.7α + β1-β2-β3 (rhesus monkey); assay: binding FACS, CHO FlpIn
T13 construct: also called rhNav1.7-beta1-beta2-beta3; rhNav1.7-β1-β2-β3
Summary of the method: as §2

huNav1.7α + β1-β2-β3 [20] = target: T12, huNav1.7α + β1-β2-β3; assay: binding FACS, CHO FlpIn; remark: listed apart in the source
Protocol: (§3) Binding of the ISVDs to cell-expressed Nav1.7α was detected via murine anti-Flag (Sigma, catalog #F1804). Briefly, cells were resuspended in FACS buffer (PBS, 10% FBS, NaN₃) and transferred to a 96-well V-bottom plate at 1×10^5 cells/well. Purified FLAG3-tagged ISVD was diluted in FACS buffer and added to the cells for 30 minutes at 4° C. […] Prior to the read-out, the samples were resuspended in 1 μg/mL propidium iodide (Sigma, catalog #P4170) to exclude dead cells. Between each step, the cells were centrifuged for 5 minutes at 200 grams and washed with 100 μL/well FACS buffer.

rhNav1.7α + β1-β2-β3 [21] = target: T13, rhNav1.7α + β1-β2-β3; assay: binding FACS, CHO FlpIn; remark: listed apart in the source
Protocol: as §3

rhNav1.7α + β1-β2-β3 [22] = target: T13, rhNav1.7α + β1-β2-β3; assay: cell-based or functional assay
muNav1.7α [23] = target: T14, muNav1.7α (murine, UniProt Q62205 1-1984); assay: binding FACS, HEK JmpIn
T14 construct: HEK JmpIn cells; also called murine Nav1.7α
Protocol: as §3

muNav1.7α [24] = target: T14, muNav1.7α; assay: binding FACS, HEK JmpIn; remark: listed apart in the source
rhNav1.7α + β1-β2-β3 [25] = target: T11, rhNav1.7α + β1-β2-β3; assay: binding FACS, CHO FlpIn cells
Summary of the method: as §1

rhNav1.7α + β1-β2-β3 [26] = target: T11, rhNav1.7α + β1-β2-β3; assay: binding FACS, CHO FlpIn cells; remark: listed apart in the source
Summary of the method: as §2

huNav1.7α + β1-β2-β3 [27] = target: T8, huNav1.7α + β1-β2-β3; assay: binding FACS, CHO FlpIn cells; remark: listed apart in the source
Summary of the method: as §2

B2: F0103387G05 (VHH)
VHH: EVQLVESGGGLVQAGGSLRLSCDASGRILRIGYMRWHRQGAGKQREFVARITDDSATDYADSVKGRFTISRDNAKNTVYLQMNNLNPEDTAVYYCEALVTASVRGGSIHSGTYWGRGTLVTVSS
notes: entry includes the FLAG-HIS6 tag; also called F0103387G05 (parental)-FLAG-HIS6
- EC50 [10]: 2.3 nM
- EC50 [11]: 2.2 nM
- EC50 (huNav1.7α + β1-β2-β3 [12]): 2.6 nM
- EC50 [13]: 5.9 nM
- EC50 [14]: 2.4 nM
- binding result (rhNav1.7α + β1-β2-β3 [15]): no binding
- IC50 (huNav1.7α + β1-β2-β3 [16]): 9.4 nM
- IC50 (huNav1.7α + β1-β2-β3 [17]): 10 nM

B3: F0103265B04-FLAG3-HIS6 (VHH)
VHH: EVQLVESGGGLVQPGGSLRLSCAAPSFIFSNNYMEWYRQAPGKQRDWVARITGRGNTNYLDSVKGRFTISRDDAKNTVYLEIDSLKPEDTAVYYCSALWYGGRAWGKGTLVTVSS
- Qpatch IC50 [M], HEK cells (huNav1.7α): 1.2e-07 M
- Qpatch IC50 (huNav1.7α + β1): 120 nM

B4: F0103464B09 (parental)-FLAG-HIS6 (VHH)
VHH: EVQLVESGGGLVQPGGSLRLSCATTSRAFIRDVFTGWYRRVPGKERELVARIYNGGNTNYADFAKGRFSISRDNAKKMVTLRMSNLKPEDTGVYYCLFSGTINTGREYRSGDYWGQGTLVTVSS
notes: also called F010346B09
- Bmax (huNav1.7α + β1-β2-β3 [18]): 99%
- EC50 (huNav1.7α + β1-β2-β3 [18]): 5.2 nM
- Bmax (rhNav1.7α + β1-β2-β3 [19]): 33%
- EC50 (rhNav1.7α + β1-β2-β3 [19]): 18 nM
- EC50 (huNav1.7α + β1-β2-β3 [20]): 5.2 nM
- EC50 (rhNav1.7α + β1-β2-β3 [21]): 18 nM
- Qpatch IC50 (rhNav1.7α + β1-β2-β3 [22]): 166 nM
- Qpatch IC50 (huNav1.7α + β1): 7 nM
- Bmax (muNav1.7α [23]): 74%
- EC50 (muNav1.7α [23]): 6.3 nM
- EC50 (muNav1.7α [24]): 6.3 nM

Results, then the binder that gave them:

- EC50 [1]: 1.9 nM
- EC50 (huNav157 chimera 14 [2]): 2.8 nM
- EC50 [3]: 3.6 nM
- EC50 [4]: 3.1 nM
- EC50 [5]: 1.9 nM
- Bmax [6]: 100%
- EC50 [6]: 3.1 nM
- EC50 [7]: 2.7 nM
- Bmax (huNav157 chimera 14 [8]): 100%
- EC50 (huNav157 chimera 14 [8]): 2.8 nM
- EC50 [9]: 3.6 nM
B1: F0103387G05 (parental)-FLAG-HIS6 (VHH)
VHH: B2 VHH

- EC50 (rhNav1.7α + β1-β2-β3 [25]): 31 nM
- EC50 [10]: 2.7 nM
- EC50 [11]: 2.6 nM
- EC50 (huNav1.7α + β1-β2-β3 [12]): 3.4 nM
- EC50 [13]: 1.6 nM
- EC50 [14]: 2.7 nM
- IC50 (rhNav1.7α + β1-β2-β3 [15]): 79 nM
- IC50 (huNav1.7α + β1-β2-β3 [17]): 12 nM
- Bmax (rhNav1.7α + β1-β2-β3 [26]): 54%
- EC50 (rhNav1.7α + β1-β2-β3 [26]): 33 nM
- EC50 (huNav1.7α + β1-β2-β3 [27]): 5.4 nM
B5: F0103464B09 (VHH)
VHH: B4 VHH
notes: entry includes the FLAG-HIS6 tag; also called F0103464B09 (parental)-FLAG-HIS6; F103464B09
